Measured values reported in US20260250410A1 (SICHUAN HUIYU PHARMACEUTICAL, published 2026).

T1: HuCDCP1-C (human, UniProt Q9H5V8 30-667)
T1 construct: range 30-667; expressed in HEK-293T, purified by Fc/his tag; also called human CDCP1-C; full-length extracellular domain of human CDCP1; not shown: Fc or his tag
T1 sequence (looked up): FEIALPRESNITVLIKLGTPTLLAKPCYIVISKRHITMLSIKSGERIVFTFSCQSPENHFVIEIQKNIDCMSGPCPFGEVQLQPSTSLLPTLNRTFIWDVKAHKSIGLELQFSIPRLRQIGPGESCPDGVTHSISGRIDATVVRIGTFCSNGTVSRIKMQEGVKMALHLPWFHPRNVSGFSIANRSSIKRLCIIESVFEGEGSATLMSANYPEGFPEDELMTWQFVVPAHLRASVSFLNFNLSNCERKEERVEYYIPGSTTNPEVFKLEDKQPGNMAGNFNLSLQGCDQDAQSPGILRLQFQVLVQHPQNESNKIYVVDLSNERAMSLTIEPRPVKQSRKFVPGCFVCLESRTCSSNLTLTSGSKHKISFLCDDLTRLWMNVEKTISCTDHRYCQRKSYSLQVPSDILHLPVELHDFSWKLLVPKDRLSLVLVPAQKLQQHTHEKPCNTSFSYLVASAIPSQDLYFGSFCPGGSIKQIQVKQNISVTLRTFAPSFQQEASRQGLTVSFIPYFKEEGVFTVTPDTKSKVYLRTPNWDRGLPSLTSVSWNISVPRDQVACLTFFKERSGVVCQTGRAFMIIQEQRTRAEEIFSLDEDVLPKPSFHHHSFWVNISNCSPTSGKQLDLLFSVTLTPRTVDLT

T2: MsCDCP1 (mouse, UniProt Q5U462 30-666)
T2 construct: extracellular domain; also called mouse CDCP1; not shown: Fc or his tag
T2 sequence (looked up): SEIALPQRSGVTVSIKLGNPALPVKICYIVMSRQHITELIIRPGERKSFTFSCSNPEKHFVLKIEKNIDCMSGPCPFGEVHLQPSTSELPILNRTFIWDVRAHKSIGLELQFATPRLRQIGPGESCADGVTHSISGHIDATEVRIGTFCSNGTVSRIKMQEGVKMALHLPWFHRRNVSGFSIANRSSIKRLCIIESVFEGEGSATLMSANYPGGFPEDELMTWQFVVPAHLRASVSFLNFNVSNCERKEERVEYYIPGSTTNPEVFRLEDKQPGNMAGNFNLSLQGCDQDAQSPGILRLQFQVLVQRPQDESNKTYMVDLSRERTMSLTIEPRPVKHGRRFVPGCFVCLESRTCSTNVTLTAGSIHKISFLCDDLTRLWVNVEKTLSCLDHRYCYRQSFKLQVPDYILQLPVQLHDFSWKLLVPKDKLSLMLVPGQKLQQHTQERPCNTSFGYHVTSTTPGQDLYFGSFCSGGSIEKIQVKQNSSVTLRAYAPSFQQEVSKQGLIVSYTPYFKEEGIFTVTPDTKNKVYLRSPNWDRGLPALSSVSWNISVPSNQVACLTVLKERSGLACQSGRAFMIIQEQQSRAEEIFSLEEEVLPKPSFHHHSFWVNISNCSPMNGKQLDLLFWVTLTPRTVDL

T3: CynoCDCP1 (Macaca fascicularis, UniProt A0A2K5VLA8 30-667)
T3 construct: extracellular domain; also called Macaca fascicularis CDCP1; monkey CDCP1; not shown: Fc or his tag
T3 sequence: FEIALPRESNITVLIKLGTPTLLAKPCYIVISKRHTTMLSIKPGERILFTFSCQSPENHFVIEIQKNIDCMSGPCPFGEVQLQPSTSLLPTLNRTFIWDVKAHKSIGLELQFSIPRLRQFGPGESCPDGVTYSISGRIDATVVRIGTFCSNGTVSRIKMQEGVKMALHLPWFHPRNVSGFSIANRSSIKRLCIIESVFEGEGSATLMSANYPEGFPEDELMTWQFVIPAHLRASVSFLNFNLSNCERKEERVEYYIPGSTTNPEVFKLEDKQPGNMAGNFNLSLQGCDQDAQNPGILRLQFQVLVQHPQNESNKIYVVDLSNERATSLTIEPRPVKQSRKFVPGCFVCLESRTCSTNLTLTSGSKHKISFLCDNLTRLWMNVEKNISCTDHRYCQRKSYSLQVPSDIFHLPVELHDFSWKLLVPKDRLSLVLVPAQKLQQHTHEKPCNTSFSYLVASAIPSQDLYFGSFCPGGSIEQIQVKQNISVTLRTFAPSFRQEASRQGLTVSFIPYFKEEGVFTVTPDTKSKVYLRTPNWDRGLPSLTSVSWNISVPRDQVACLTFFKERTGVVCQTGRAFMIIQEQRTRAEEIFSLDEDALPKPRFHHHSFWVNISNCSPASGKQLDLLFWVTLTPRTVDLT

T4: RatCDCP1 (rat, UniProt D3ZVA1 29-666)
T4 construct: extracellular domain; not shown: Fc or his tag
T4 sequence: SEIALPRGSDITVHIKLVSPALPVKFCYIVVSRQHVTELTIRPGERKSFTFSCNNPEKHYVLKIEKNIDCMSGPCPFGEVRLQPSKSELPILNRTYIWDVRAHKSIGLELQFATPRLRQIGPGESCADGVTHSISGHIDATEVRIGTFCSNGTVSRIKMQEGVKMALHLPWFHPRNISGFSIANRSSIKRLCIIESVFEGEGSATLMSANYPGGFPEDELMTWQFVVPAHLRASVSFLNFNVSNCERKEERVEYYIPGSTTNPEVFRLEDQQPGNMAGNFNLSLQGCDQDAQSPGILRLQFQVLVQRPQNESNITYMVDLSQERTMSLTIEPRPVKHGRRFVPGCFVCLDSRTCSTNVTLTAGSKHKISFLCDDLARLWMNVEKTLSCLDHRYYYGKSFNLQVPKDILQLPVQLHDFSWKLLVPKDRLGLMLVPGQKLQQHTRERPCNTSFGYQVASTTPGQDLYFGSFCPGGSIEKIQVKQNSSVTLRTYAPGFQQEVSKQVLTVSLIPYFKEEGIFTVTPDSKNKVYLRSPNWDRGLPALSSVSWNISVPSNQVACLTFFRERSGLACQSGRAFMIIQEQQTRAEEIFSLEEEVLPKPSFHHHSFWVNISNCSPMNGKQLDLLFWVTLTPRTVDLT


Assays:
Test in all cases: SPR (Caterra or Biacore), antigen immobilized
HuCDCP1-C = molecular target: T1, HuCDCP1-C
MsCDCP1 = molecular target: T2, MsCDCP1
CynoCDCP1 = molecular target: T3, CynoCDCP1
RatCDCP1 = molecular target: T4, RatCDCP1

EC50 (HuCDCP1-C)	EC50 (MsCDCP1)	EC50 (CynoCDCP1)	EC50 (RatCDCP1)	Binder	binding result (MsCDCP1)	binding result (RatCDCP1)
0.105 nM	–	0.0516 nM	50.5 nM	8E5 (antibody, V domains shown, murine hybridoma mAb; also called 8ES) VH: EVQLKESGPELKKPGETVKISCKASGYTLTDFSMHWLKQAPGKGLKWMGWINTETGAPTYADDFKGRFALSLDTSANTAYLQINNLKNEDTATYFCSRGRDYDPHFDYWGQGTTVTVSS VL: EIVLTQSPATLSVTPGDRVSLSCRASQSISDFLHWYQQRSHESPRLLIKYASQSISGIPSRFGGSGSGSDFTLNINTVEPEDVGMYYCQSAHSFPYTFGGGTKLEIK	no binding (tested: 150 nM highest concentration)	–
5.63 nM	–	4.47 nM	–	G10F6 (antibody, V domains shown, murine hybridoma mAb) VH: EVKLVESGPGILQPSQTLSLTCSFSGFSLSTSGMGVSWVRQPSGKGLEWLAHIYWDDDKRYNPSLKGRLTISKDTPRNQVFLEITSVDTTDTATYYCARVPGNWDEDAMDYWGQGTTVTVSS VL: DIQMTQSPLSLPVSLGDQASISCRSSQNIVHTNGNTYLEWYLQKVGQSPKLLIYKVSNRFSGVPDRFSGSGSGTDFTLKISRVEAEDLGVYYCFQGSHVPYTFGGGTKLEIK	no binding (tested: 150 nM highest concentration)	no binding (tested: 150 nM highest concentration)
0.0634 nM	4010 nM	1.45 nM	–	12E6 (antibody, V domains shown, murine hybridoma mAb) VH: EVQLKESGPGILQPSQTLSLTCSFSGFSLSTSGMGVGWIRQPSGKGLEWLAHIWWDDVKLYNPALKSRLTISKETSNNQVFLKIASVDAADTATYYCARIDHGYGSNYWDFDVWGAGTTVTVSS VL: DIVMTQAAPSVPVTPGGSVSISCRSTKSLLHSDGKTYLYWFLQRPGQSPQLLIYRMSNLASGVPDRFSGSGSGTAFTLRISRVEAEDVGVYYCMQHLEYPFTFGSGTKLEIK	–	no binding (tested: 150 nM highest concentration)

The remaining lines, values behind:

Binder	EC50 (HuCDCP1-C)	EC50 (MsCDCP1)	EC50 (CynoCDCP1)	EC50 (RatCDCP1)	binding result (MsCDCP1)	binding result (RatCDCP1)
6A7 (antibody, V domains shown, murine hybridoma mAb) VH: EVQLKESGAELVRPGASVKVSCKASGYSFTSYWMNWVKQRPGQGLEWIGMIHPSDSETKLNQKFRDRASLTVDKSSSTAYMQLSSPTSEDSAVYYCTINYESFYYAMDYWGQGTTVTVSS VL: DIVMTQSPASLAVSLGQRATISCRASKSVSTSGYSYMHWYQQKPGQPPKLLLYLASNLESGVPARFSGSGSGADFTLNIHPVEEEDAATYYCLHSRELPYTFGGGTKLEIK	9.65 nM	27.5 nM	9.96 nM	91.4 nM	–	–
5B8 (antibody, V domains shown, murine hybridoma mAb) VH: EVQLKESGGGLVQPGGSLRISCATSGLTFTHYHMSWVRQPPGKAPEWLAIIRNKAYGYTTDYSASVRGRFTISRDDSQSILYLQMNTLRAEDSATYYCVREGGYGYDGTFAYWGQGTTVTVSS VL: not shown	1.19 nM	–	0.136 nM	18 nM	no binding (tested: 150 nM highest concentration)	–
3C11 (antibody, V domains shown, murine hybridoma mAb) VH: EVQLQQSGTVLARPGASVKMSCKASGYNFISYWLHWIKQRPGQGLEWIGGIYPGNTDTTYNQKFKGKAKVTAVTSATTAYMELSSLTNEDSAVYYCIRYDYDRGMDYWGQGTTVTVSS VL: DIQMTQSPSSFSVSLGDRVTITCRASEDIYYRLAWYQQKPGNAPRLLISGATALETGVPSRFSGSGSGKDYTLSITSLQTEDVATYYCQHYWNIPWTFGGGTKLEIK	3.96 nM	–	23.6 nM	–	no binding (tested: 150 nM highest concentration)	no binding (tested: 150 nM highest concentration)
3B12H5 (antibody, V domains shown, murine hybridoma mAb; also called 3B12HS) VH: EVQLQQSGTVLARPGASVKMSCKASGYSFTIYWVHWVKQRPGQGLEWIGAVYPGNDDTSYNQNFKGKAKLTAVTSATTAYMELSSLTIDDSAVYYCTRHTYDEVFDYWGQGTTVTVSS VL: DIVMTQSPSSLSVSLGDRVTITCKASEDIYYRLAWYQQKPGNAPRLLISGGTNLEAGIPSRFSGSGSGKDYTLSITSLQTEDVAIYYCQHYWNTPWTFGGGTKLEIK	0.723 nM	–	4.5 nM	–	no binding (tested: 150 nM highest concentration)	no binding (tested: 150 nM highest concentration)
